One substance from paper doi:10.1101/580712 can be followed below.

For this test, the target named is human Macrophage Expressed Gene-1 (MPEG-1) soluble ectodomain, wild type (human) (UniProt Q2M385). Kind of test: cryo-EM structure.

On to “human Macrophage Expressed Gene-1 (MPEG-1) soluble ectodomain, wild type (from UniProt Q2M385 17-653) (domain or fragment)”, for which the stoichiometry N (subunits per ring) was 16.
